In assay [1] the target is human growth hormone receptor on IM-9 cells (human) (UniProt P10912). The assay is described as follows: cell-based or functional assay.
Assay [2] concerns the target T1, rat GHR (L43R) on BAF3 cells (clone 2E2-2B12-F4) (rat) (UniProt P16310).
T1 sequence (looked up): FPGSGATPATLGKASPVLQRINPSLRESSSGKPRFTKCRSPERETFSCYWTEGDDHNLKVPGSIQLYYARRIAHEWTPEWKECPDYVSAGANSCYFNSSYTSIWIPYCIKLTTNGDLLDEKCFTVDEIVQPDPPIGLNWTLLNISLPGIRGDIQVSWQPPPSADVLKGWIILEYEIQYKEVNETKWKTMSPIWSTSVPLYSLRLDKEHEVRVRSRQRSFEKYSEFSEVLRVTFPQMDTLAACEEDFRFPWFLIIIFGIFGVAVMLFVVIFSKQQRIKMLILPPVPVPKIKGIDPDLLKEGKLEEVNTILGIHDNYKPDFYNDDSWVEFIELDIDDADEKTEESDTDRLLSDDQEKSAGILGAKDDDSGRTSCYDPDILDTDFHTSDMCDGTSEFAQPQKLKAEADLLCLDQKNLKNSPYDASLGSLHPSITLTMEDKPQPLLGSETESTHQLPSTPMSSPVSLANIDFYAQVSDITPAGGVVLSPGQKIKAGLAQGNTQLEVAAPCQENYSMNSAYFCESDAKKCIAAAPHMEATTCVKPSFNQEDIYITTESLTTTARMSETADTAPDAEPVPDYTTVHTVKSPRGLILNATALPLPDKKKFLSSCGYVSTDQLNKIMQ
Description: cell-based or functional assay.

Sequence of UniProt P10912 (P10912 19-638): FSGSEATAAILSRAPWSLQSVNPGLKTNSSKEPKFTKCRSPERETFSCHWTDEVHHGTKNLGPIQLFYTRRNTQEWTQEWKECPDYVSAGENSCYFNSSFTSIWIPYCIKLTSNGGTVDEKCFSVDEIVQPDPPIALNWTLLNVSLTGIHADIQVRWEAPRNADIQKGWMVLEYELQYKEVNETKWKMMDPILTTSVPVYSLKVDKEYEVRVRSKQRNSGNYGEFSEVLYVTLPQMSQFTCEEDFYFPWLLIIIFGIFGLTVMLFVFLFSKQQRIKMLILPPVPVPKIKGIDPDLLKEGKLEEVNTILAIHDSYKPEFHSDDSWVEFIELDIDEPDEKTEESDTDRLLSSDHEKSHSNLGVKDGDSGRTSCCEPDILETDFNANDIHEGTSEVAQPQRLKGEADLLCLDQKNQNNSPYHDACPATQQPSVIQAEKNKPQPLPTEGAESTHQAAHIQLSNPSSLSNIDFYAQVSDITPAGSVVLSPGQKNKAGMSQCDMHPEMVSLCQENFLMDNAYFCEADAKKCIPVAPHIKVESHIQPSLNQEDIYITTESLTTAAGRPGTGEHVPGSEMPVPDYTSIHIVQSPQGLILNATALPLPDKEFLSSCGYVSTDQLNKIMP

The substance “hGH Y35pAF-40KPEG (from UniProt P01241 27-217) (ligand)” returned a pSTAT5 EC50 (IM-9) (nM (head); WHO hGH expressed as unity) in assay [1] of 53.3. Also, in assay [2], the Proliferation EC50 (BrdU, rat GHR (L43R) BAF3 cells) (nM (head); WHO hGH expressed as unity) came to 24.

“hGH G131pAF-30KPEG (from UniProt P01241 27-217) (ligand)” registered a pSTAT5 EC50 (IM-9) (nM (head); WHO hGH expressed as unity) in assay [1] of 23.8. Moreover, the Proliferation EC50 (BrdU, rat GHR (L43R) BAF3 cells) (nM (head); WHO hGH expressed as unity) in assay [2] amounted to 4.6.

In assay [1], “hGH Y143pAF-30KPEG (from UniProt P01241 27-217) (ligand)” displayed a pSTAT5 EC50 (IM-9) (nM (head); WHO hGH expressed as unity) of 12.3. Moreover, the Proliferation EC50 (BrdU, rat GHR (L43R) BAF3 cells) (nM (head); WHO hGH expressed as unity) in assay [2] is 6.6.

In the case of “hGH K145pAF-30KPEG (from UniProt P01241 27-217) (ligand)”, in assay [1], the pSTAT5 EC50 (IM-9) (nM (head); WHO hGH expressed as unity) stood at 20.6. Further, the Proliferation EC50 (BrdU, rat GHR (L43R) BAF3 cells) (nM (head); WHO hGH expressed as unity) in assay [2] turned out to be 5.3.

“hGH R134pAF-20KPEG (from UniProt P01241 27-217) (ligand)”: the pSTAT5 EC50 (IM-9) (nM (head); WHO hGH expressed as unity) in assay [1] amounted to 5.3.

The values above are taken from patent US8778880.
